From US20030118612A1 (MAXYGEN, published 2003) come the findings set out here.

The labels stand for the following.
T1: human G-CSF receptor (human, UniProt Q99062 25-836)
T1 sequence (looked up): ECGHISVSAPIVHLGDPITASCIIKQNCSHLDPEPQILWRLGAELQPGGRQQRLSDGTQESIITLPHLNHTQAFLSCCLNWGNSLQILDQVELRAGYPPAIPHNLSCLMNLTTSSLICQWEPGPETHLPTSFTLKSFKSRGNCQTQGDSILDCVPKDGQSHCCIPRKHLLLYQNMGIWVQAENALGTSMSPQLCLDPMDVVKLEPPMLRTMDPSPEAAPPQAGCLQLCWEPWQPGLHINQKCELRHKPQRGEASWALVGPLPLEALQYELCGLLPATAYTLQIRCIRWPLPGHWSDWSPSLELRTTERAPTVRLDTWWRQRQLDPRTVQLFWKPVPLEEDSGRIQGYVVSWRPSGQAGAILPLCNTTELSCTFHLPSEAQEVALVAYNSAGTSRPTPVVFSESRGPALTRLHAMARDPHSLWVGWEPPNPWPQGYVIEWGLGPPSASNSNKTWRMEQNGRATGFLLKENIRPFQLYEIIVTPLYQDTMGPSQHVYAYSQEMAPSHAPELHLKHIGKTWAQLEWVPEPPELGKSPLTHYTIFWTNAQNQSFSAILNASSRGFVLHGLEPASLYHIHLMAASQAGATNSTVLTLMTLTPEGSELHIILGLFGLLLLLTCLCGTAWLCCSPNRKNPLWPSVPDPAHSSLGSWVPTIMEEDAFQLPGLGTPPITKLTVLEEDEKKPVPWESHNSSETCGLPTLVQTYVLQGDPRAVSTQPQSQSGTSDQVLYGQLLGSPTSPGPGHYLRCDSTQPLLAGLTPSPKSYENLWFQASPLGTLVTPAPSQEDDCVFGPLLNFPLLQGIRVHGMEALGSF

B1: G-CSF variant K16/34/40R S66K conjugated to SPA-PEG 5000 (ligand)
chain: TPLGPASSLPQSFLLRCLEQVRKIQGDGAALQERLCATYRLCHPEELVLLGHSLGIPWAPLSSCPKQALQLAGCLSQLHSGLFLYQGLLQALEGISPELGPTLDTLQLDVADFATTIWQQMEELGMAPALQPTQGAMPAFASAFQRRAGGVLVASHLQSFLEVSYRVLRHLAQP
modifications: SPA-PEG 5000 conjugated to the available PEGylation sites
B2: G-CSF variant 16R, non-conjugated (ligand)
chain: B1 chain with R34K, R40K, K66S
B3: G-CSF variant K16/34/40R T105K, non-conjugated (ligand)
chain: B1 chain with K66S, T105K
B4: G-CSF variant K16/34/40R Q158 conjugated to SPA-PEG 5000 (ligand)
chain: B1 chain with K66S, Q158K
modifications: SPA-PEG 5000 conjugated to the available PEGylation sites
B5: G-CSF variant K16/34/40R D104K conjugated to SPA-PEG 5000 (ligand)
chain: B1 chain with K66S, D104K
modifications: SPA-PEG 5000 conjugated to the available PEGylation sites
B6: G-CSF variant K16/34/40R Q90K T105K, non-conjugated (ligand)
chain: B1 chain with K66S, Q90K, T105K
B7: G-CSF variant K16/34/40R Q90K conjugated to SPA-PEG 5000 (ligand)
chain: B1 chain with K66S, Q90K
modifications: SPA-PEG 5000 conjugated to the available PEGylation sites
B8: G-CSF variant K16/34/40R Q70K, non-conjugated (ligand)
chain: B1 chain with K66S, Q70K
B9: G-CSF variant K16/34/40R T105K Q120K, non-conjugated (ligand)
chain: B1 chain with K66S, T105K, Q120K
B10: G-CSF variant K16/34/40R S142K, non-conjugated (ligand)
chain: B1 chain with K66S, S142K
B11: G-CSF variant K16/34/40R T133K conjugated to SPA-PEG 5000 (ligand)
chain: B1 chain with K66S, T133K
modifications: SPA-PEG 5000 conjugated to the available PEGylation sites
B12: G-CSF variant K16/34/40R Q120K conjugated to SPA-PEG 5000 (ligand)
chain: B1 chain with K66S, Q120K
modifications: SPA-PEG 5000 conjugated to the available PEGylation sites
B13: G-CSF variant K16/34/40R Q120K, non-conjugated (ligand)
chain: B1 chain with K66S, Q120K
B14: G-CSF variant K16/34/40R Q67K, non-conjugated (ligand)
chain: B1 chain with K66S, Q67K
B15: G-CSF variant K16/34/40R D104K, non-conjugated (ligand)
chain: B1 chain with K66S, D104K
B16: G-CSF variant K16/34/40R T133K, non-conjugated (ligand)
chain: B1 chain with K66S, T133K
B17: G-CSF variant K16/34/40R R147K conjugated to SPA-PEG 5000 (ligand)
chain: B1 chain with K66S, R147K
modifications: SPA-PEG 5000 conjugated to the available PEGylation sites
B18: G-CSF variant K16/34/40R S155K, non-conjugated (ligand)
chain: B1 chain with K66S, S155K
B19: G-CSF variant K16/34/40R T105K conjugated to SPA-PEG 5000 (ligand)
chain: B1 chain with K66S, T105K
modifications: SPA-PEG 5000 conjugated to the available PEGylation sites
B20: G-CSF variant K16/34/40R Q70K Q120K, non-conjugated (ligand)
chain: B1 chain with K66S, Q70K, Q120K
B21: G-CSF variant K16/34/40R Q90K S159K, non-conjugated (ligand)
chain: B1 chain with K66S, Q90K, S159K
B22: G-CSF variant K16/34/40R Q90K Q120K, non-conjugated (ligand)
chain: B1 chain with K66S, Q90K, Q120K
B23: G-CSF variant K16/34/40R S80K, non-conjugated (ligand)
chain: B1 chain with K66S, S80K
B24: G-CSF variant 16R conjugated to SPA-PEG 5000 (ligand)
chain: B1 chain with R34K, R40K, K66S
modifications: SPA-PEG 5000 conjugated to the available PEGylation sites
B25: G-CSF variant K16/34/40R Q134K conjugated to SPA-PEG 5000 (ligand)
chain: B1 chain with K66S, Q134K
modifications: SPA-PEG 5000 conjugated to the available PEGylation sites
B26: G-CSF variant 16Q conjugated to SPA-PEG 5000 (ligand)
chain: B1 chain with R16Q, R34K, R40K, K66S
modifications: SPA-PEG 5000 conjugated to the available PEGylation sites
B27: G-CSF variant K16/34/40R S159K conjugated to SPA-PEG 5000 (ligand)
chain: B1 chain with K66S, S159K
modifications: SPA-PEG 5000 conjugated to the available PEGylation sites
B28: G-CSF variant K16/34/40R Q70K conjugated to SPA-PEG 5000 (ligand)
chain: B1 chain with K66S, Q70K
modifications: SPA-PEG 5000 conjugated to the available PEGylation sites
B29: G-CSF variant K16/34/40R S159K, non-conjugated (ligand)
chain: B1 chain with K66S, S159K
B30: G-CSF variant K16/34/40R Q134K, non-conjugated (ligand)
chain: B1 chain with K66S, Q134K
B31: G-CSF variant K16/34/40R Q90K Q120K conjugated to SPA-PEG 5000 (ligand)
chain: B1 chain with K66S, Q90K, Q120K
modifications: SPA-PEG 5000 conjugated to the available PEGylation sites
B32: G-CSF variant K16/34/40R Q77 conjugated to SPA-PEG 5000 (ligand)
chain: B1 chain with K66S, Q77K
modifications: SPA-PEG 5000 conjugated to the available PEGylation sites
B33: G-CSF variant K16/34/40R S142K conjugated to SPA-PEG 5000 (ligand)
chain: B1 chain with K66S, S142K
modifications: SPA-PEG 5000 conjugated to the available PEGylation sites
B34: G-CSF variant K16/34/40R Q67K conjugated to SPA-PEG 5000 (ligand)
chain: B1 chain with K66S, Q67K
modifications: SPA-PEG 5000 conjugated to the available PEGylation sites
B35: G-CSF variant 16Q, non-conjugated (ligand)
chain: B1 chain with R16Q, R34K, R40K, K66S
B36: G-CSF variant K16/34/40R Q90K T105K conjugated to SPA-PEG 5000 (ligand)
chain: B1 chain with K66S, Q90K, T105K
modifications: SPA-PEG 5000 conjugated to the available PEGylation sites
B37: G-CSF variant K16/34/40R S155K conjugated to SPA-PEG 5000 (ligand)
chain: B1 chain with K66S, S155K
modifications: SPA-PEG 5000 conjugated to the available PEGylation sites
B38: G-CSF variant K16/34/40R Q70K Q120K conjugated to SPA-PEG 5000 (ligand)
chain: B1 chain with K66S, Q70K, Q120K
modifications: SPA-PEG 5000 conjugated to the available PEGylation sites
B39: G-CSF variant K16/34/40R Q158, non-conjugated (ligand)
chain: B1 chain with K66S, Q158K
B40: G-CSF variant K16/34/40R Q90K, non-conjugated (ligand)
chain: B1 chain with K66S, Q90K
B41: G-CSF variant K16/34/40R S76, non-conjugated (ligand)
chain: B1 chain with K66S, S76K
B42: G-CSF variant K16/34/40R Q77, non-conjugated (ligand)
chain: B1 chain with K66S, Q77K
B43: G-CSF variant K16/34/40R S80K conjugated to SPA-PEG 5000 (ligand)
chain: B1 chain with K66S, S80K
modifications: SPA-PEG 5000 conjugated to the available PEGylation sites
B44: G-CSF variant K16/34/40R R147K, non-conjugated (ligand)
chain: B1 chain with K66S, R147K
B45: G-CSF variant 23Q, non-conjugated (ligand)
chain: B1 chain with R16K, K23Q, R34K, R40K, K66S
B46: G-CSF variant K16/34/40R Q70K Q90K conjugated to SPA-PEG 5000 (ligand)
chain: B1 chain with K66S, Q70K, Q90K
modifications: SPA-PEG 5000 conjugated to the available PEGylation sites
B47: G-CSF variant K16/34/40R S76 conjugated to SPA-PEG 5000 (ligand)
chain: B1 chain with K66S, S76K
modifications: SPA-PEG 5000 conjugated to the available PEGylation sites

Changes are numbered by the printed parent chain. Names and notes keep the numbering of the source.

The target of this experiment is T1, human G-CSF receptor. Put plainly: cell-based or functional assay.
For B1, the “EC50 (% of hG-CSF) conjugated to SPA-PEG 5000” value (shortened to “EC50 (% of hG-CSF) conjugated”) was 2 % of hG-CSF.
In the case of B2, the “EC50 (% of hG-CSF) non-conjugated” value is 100 % of hG-CSF.
The same measure, in the same setting: the value for B3 was 30 % of hG-CSF.
Consider B4, for which the “EC50 (% of hG-CSF) conjugated” value was 5 % of hG-CSF.
On the same count and under the same terms, the value for B5 was 0.9 % of hG-CSF.
In the case of B6, the “EC50 (% of hG-CSF) non-conjugated” value is 40 % of hG-CSF.
For B7, the “EC50 (% of hG-CSF) conjugated” value was 20 % of hG-CSF.
B8: the “EC50 (% of hG-CSF) non-conjugated” value was 30 % of hG-CSF.
Consider B9, for which the “EC50 (% of hG-CSF) non-conjugated” value is 20 % of hG-CSF.
Same read-out and setting: to B10 belongs 20 % of hG-CSF.
For the molecule B11, the “EC50 (% of hG-CSF) conjugated” value is 10 % of hG-CSF.
For B12, the “EC50 (% of hG-CSF) conjugated” value is 20 % of hG-CSF.
On to B13, for which the “EC50 (% of hG-CSF) non-conjugated” value is 30 % of hG-CSF.
The same measure, in the same setting: the value for B14 was 10 % of hG-CSF.
For B15, the “EC50 (% of hG-CSF) non-conjugated” value was 10 % of hG-CSF.
The same measure, in the same setting: the value for B16 was 30 % of hG-CSF.
For B17, the “EC50 (% of hG-CSF) conjugated” value was 1 % of hG-CSF.
In the case of B18, the “EC50 (% of hG-CSF) non-conjugated” value was 20 % of hG-CSF.
On to B19, for which the “EC50 (% of hG-CSF) conjugated” value was 10 % of hG-CSF.
For the molecule B20, the “EC50 (% of hG-CSF) non-conjugated” value is 25 % of hG-CSF.
With B21, the “EC50 (% of hG-CSF) non-conjugated” value was 45 % of hG-CSF.
Consider B22, for which the “EC50 (% of hG-CSF) non-conjugated” value is 25 % of hG-CSF.
With B23, the “EC50 (% of hG-CSF) non-conjugated” value is 10 % of hG-CSF.
As to B24, the “EC50 (% of hG-CSF) conjugated” value is 1 % of hG-CSF.
On the same count and under the same terms, to B25 belongs 0.2 % of hG-CSF; to B26, 1 % of hG-CSF; to B27, 3 % of hG-CSF.
For the molecule B28, the “EC50 (% of hG-CSF) conjugated” value is 20 % of hG-CSF.
Turning to B29, the “EC50 (% of hG-CSF) non-conjugated” value is 20 % of hG-CSF.
On the same count and under the same terms, the value for B30 was 10 % of hG-CSF.
Take B31: the “EC50 (% of hG-CSF) conjugated” value was 15 % of hG-CSF.
On the same count and under the same terms, to B32 belongs 0 % of hG-CSF; to B33, 7 % of hG-CSF.
The same measure, in the same setting: the value for B34 was 0.2 % of hG-CSF.
In the case of B35, the “EC50 (% of hG-CSF) non-conjugated” value is 80 % of hG-CSF.
As for B36, the “EC50 (% of hG-CSF) conjugated” value is 10 % of hG-CSF.
The same measure, in the same setting: the value for B37 was 1 % of hG-CSF; that for B38 was 25 % of hG-CSF.
With B39, the “EC50 (% of hG-CSF) non-conjugated” value is 20 % of hG-CSF.
Still for that read-out and setting: the value for B40 was 30 % of hG-CSF; that for B41 was 50 % of hG-CSF; that for B42 was 1 % of hG-CSF.
B43: the “EC50 (% of hG-CSF) conjugated” value is 0.2 % of hG-CSF.
In the case of B44, the “EC50 (% of hG-CSF) non-conjugated” value was 20 % of hG-CSF.
The same measure, in the same setting: the value for B45 was 80 % of hG-CSF.
On to B46, for which the “EC50 (% of hG-CSF) conjugated” value was 20 % of hG-CSF.
Regarding B47, the “EC50 (% of hG-CSF) conjugated” value was 20 % of hG-CSF.
